The text below walks through data of article PMC10275983 (Nature Communications, 2023).

No end group written: not given here.

The experiment concerns the target S1-RBD (ACROBiosystems SPD-C82E9) (SARS-CoV-2 (Wuhan-Hu-1 strain), UniProt P0DTC2 319-541). The experiment is described as follows: SPR. The note with it: both partners purified.
Turning to ACEYVGPMCYRLYCA (not fully specified (bridges); also: Bicycle) [E1 Bicycle (exemplar of epitope group 1)], the binding result is reported as “binds”. In the case of ACEDNDWVYCSTCA (not fully specified (bridges); also: bicyclic peptide, scaffold not named) [E3 Bicycle (exemplar of epitope group 3)] it was “binds”.

Turning to ACANPDNPVCRFYCA (not fully specified (bridges); also: bicyclic peptide, scaffold not named) [E5 Bicycle (canonical exemplar of epitope group 5)], the binding result was “binds”.

For the molecule ACPYVAGRGTCLLCA (not fully specified (bridges); cysteine pairing not given here) [E2 Bicycle (canonical exemplar of epitope group 2)], the binding result is listed as “binds”.
